Target: T1, EphA2 receptor on tumor cells (human, UniProt P29317 24-976)
Assay: cell-based or functional assay

T1 sequence (P29317 24-976): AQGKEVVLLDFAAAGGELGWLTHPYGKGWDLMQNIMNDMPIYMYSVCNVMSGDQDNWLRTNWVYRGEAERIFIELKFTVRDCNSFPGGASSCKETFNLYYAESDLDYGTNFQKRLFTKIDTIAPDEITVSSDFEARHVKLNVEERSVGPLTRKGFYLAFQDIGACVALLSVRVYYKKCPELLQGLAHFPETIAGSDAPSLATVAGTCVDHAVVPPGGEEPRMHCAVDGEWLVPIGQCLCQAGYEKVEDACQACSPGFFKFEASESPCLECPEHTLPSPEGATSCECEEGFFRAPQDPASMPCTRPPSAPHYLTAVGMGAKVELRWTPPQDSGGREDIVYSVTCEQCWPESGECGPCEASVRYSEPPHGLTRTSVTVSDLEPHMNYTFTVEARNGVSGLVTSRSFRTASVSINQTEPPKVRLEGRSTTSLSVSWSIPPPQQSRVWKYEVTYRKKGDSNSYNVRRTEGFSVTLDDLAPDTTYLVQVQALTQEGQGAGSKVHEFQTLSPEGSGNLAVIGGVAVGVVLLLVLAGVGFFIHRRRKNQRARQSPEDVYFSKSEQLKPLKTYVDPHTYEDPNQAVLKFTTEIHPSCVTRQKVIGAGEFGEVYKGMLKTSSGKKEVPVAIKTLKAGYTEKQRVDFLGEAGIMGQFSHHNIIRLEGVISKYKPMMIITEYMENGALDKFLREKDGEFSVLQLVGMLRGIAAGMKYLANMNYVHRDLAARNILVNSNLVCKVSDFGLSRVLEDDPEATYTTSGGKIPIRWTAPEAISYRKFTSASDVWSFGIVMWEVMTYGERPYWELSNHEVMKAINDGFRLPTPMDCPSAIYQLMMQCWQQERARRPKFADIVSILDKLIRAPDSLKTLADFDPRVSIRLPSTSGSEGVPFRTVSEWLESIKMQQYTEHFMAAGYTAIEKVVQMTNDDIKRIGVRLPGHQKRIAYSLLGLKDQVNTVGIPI

MDA-MB231 + naked 2H11 (1 uM) IC50 (nM), 14C thymidine uptake [nM] | MDA-MB231 IC50 (nM), 14C thymidine uptake [nM] | Ratio of IC50s (with naked 2H11 / alone) on MDA-MB231 | Binder
8.1 | 1.1 | 7 | hu2H11-SPDB-DM4 (DAR 3.93) (antibody, V domains shown, DM4 through SPDB linker on lysine residues, sites not given; average DAR 3.93) VH: QVQLVQSGAEVVKPGASVKISCKASGYTFTAYYMHWVKQSPVQSLEWIGLVNPYNGFSSYNQKFQGKASLTVDKSSSTAYMELHSLTSEDSAVYYCAREFYGYRYFDVWGQGTAVTVSS VL: not shown
27.4 | 0.2 | 114 | hu2H11-PEG4-NHAc-DM4 (DAR 5.3) (antibody, V domains shown, DM4 through PEG4-NHAc linker on lysine residues, sites not given; average DAR 5.3) VH: QVQLVQSGAEVVKPGASVKISCKASGYTFTAYYMHWVKQSPVQSLEWIGLVNPYNGFSSYNQKFQGKASLTVDKSSSTAYMELHSLTSEDSAVYYCAREFYGYRYFDVWGQGTAVTVSS VL: not shown
11.5 | 1.2 | 9 | hu2H11R35R74-SPDB-DM4 (DAR 3.97) (antibody, V domains shown, DM4 through SPDB linker on lysine residues, sites not given; average DAR 3.97) VH: QVQLVQSGAEVVKPGASVKISCKASGYTFTAYYMHWVKQSPVQSLEWIGLVNPYNGFSSYNQKFQGKASLTVDRSSSTAYMELHSLTSEDSAVYYCAREFYGYRYFDVWGQGTAVTVSS VL: not shown
80.8 | 0.06 | 1350 | hu2H11R35R74-PEG4-NHAc-DM4 (DAR 5.5) (antibody, V domains shown, DM4 through PEG4-NHAc linker on lysine residues, sites not given; average DAR 5.5) VH: QVQLVQSGAEVVKPGASVKISCKASGYTFTAYYMHWVKQSPVQSLEWIGLVNPYNGFSSYNQKFQGKASLTVDRSSSTAYMELHSLTSEDSAVYYCAREFYGYRYFDVWGQGTAVTVSS VL: not shown
25.1 | 0.1 | 228 | hu2H11R35R74-PEG4-Mal-DM4 (DAR 6.1) (antibody, V domains shown, DM4 through PEG4-Mal linker on lysine residues, sites not given; average DAR 6.1) VH: QVQLVQSGAEVVKPGASVKISCKASGYTFTAYYMHWVKQSPVQSLEWIGLVNPYNGFSSYNQKFQGKASLTVDRSSSTAYMELHSLTSEDSAVYYCAREFYGYRYFDVWGQGTAVTVSS VL: not shown

Target: T2, huEphA2-mFc (human, UniProt P29317 24-534, limits assumed)
T2 construct: Immobilised antigen of the Biacore experiment; also called EphA2-Fc; extra-cellular domain of EphA2 receptor-Fc; not shown: mouse Fc (mFc)
Assay: SPR, Biacore 3000; EphA2-Fc amine-coupled on C1 chip, IgG in flow, 25 C, 1:1 Langmuir fit
Procedure: pH=4.5) was coupled to the matrix of a C1 sensor chip (GE healthcare BR-1005-40) at 10 μl/min using a standard amine coupling protocol with EDC (N-ethyl-N′-[dimethyl-aminopropyl]carbodiimide)/NHS (N-hydroxysuccinimide). The density was controlled at an increased response level of ˜100 response units (RU) in kinetic binding experiments. IgGs were diluted in 0.01 M Hepes, pH 7.4 containing 0.15 M NaCl, 3 mM EDTA, and 0.005% P20. All subsequent dilutions were made in the same buffer. All binding experiments were performed at 25° C. with IgG concentrations typically ranging from 50 to 0.2 nM at a flow rate of 50 μl/min.
Data were collected for approximately 12 min (2 min association time and 10 min dissociation time) and 1 min pulse at 30 μl/min of 1M NaCl, 50 mM NaOH was used to regenerate the surfaces. IgGs were also flowed over an uncoated cell and the sensorgrams from the blank runs were substracted from those obtained with EphA2-Fc coupled chips. Data were fitted to a 1:1 Langmuir binding model with drifting baseline. This algorithm calculates both the kₒₙ and the koff, from which the apparent equilibrium dissociation constant KD, is deduced as the ratio of the two rate constants (koff/kₒₙ).
The affinity constant was first measured with both naked hu2H11 and hu2H11R35R74.

T2 sequence (P29317 24-534 limits assumed): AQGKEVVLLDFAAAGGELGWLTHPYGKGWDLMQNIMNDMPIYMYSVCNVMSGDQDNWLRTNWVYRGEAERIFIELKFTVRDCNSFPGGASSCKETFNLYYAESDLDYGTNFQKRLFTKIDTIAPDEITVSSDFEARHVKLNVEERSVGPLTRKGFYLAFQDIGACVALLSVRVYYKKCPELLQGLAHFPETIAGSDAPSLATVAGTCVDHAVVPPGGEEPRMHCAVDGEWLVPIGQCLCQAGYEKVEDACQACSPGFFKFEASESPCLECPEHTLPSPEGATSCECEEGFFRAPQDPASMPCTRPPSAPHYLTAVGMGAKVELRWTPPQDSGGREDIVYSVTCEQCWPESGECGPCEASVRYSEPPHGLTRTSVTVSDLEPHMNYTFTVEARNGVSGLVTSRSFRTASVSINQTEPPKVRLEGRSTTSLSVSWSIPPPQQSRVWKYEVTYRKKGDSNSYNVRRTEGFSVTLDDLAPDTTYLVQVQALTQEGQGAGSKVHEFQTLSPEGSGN

Ka [M⁻¹] | Kd [nM] | Ratio (KD against naked hu2H11) [fold] | koff [s⁻¹] | kon [M⁻¹ s⁻¹] | Binder
4.59e+09 | 0.218 | 0.7 | 0.00115 | 5.25e+06 | hu2H11R35R74 (antibody, V domains shown, only the variable domains are tied by name to humanized 2H11R35R74; also called humanized 2H11R35R74; naked hu2H11R35R74) VH: QVQLVQSGAEVVKPGASVKISCKASGYTFTAYYMHWVKQSPVQSLEWIGLVNPYNGFSSYNQKFQGKASLTVDRSSSTAYMELHSLTSEDSAVYYCAREFYGYRYFDVWGQGTAVTVSS VL: not shown
3.55e+09 | 0.282 | 0.9 | 0.00119 | 4.21e+06 | hu2H11R35R74-PEG4-NHAc-DM4 (D/A 6.3) (antibody, V domains shown, DM4 through PEG4-NHAc linker on lysine residues, sites not given; average D/A 6.3 per antibody, Antibody-drug conjugate of hu2H11R35R74; constant regions as for m2) VH: QVQLVQSGAEVVKPGASVKISCKASGYTFTAYYMHWVKQSPVQSLEWIGLVNPYNGFSSYNQKFQGKASLTVDRSSSTAYMELHSLTSEDSAVYYCAREFYGYRYFDVWGQGTAVTVSS VL: not shown
3.64e+09 | 0.275 | 0.9 | 0.00123 | 4.47e+06 | hu2H11R35R74-PEG4-NHAc-DM4 (D/A 7.4) (antibody, V domains shown, DM4 through PEG4-NHAc linker on lysine residues, sites not given; average D/A 7.4 per antibody, Antibody-drug conjugate of hu2H11R35R74; constant regions as for m2) VH: QVQLVQSGAEVVKPGASVKISCKASGYTFTAYYMHWVKQSPVQSLEWIGLVNPYNGFSSYNQKFQGKASLTVDRSSSTAYMELHSLTSEDSAVYYCAREFYGYRYFDVWGQGTAVTVSS VL: not shown
3.8e+09 | 0.263 | 0.9 | 0.00115 | 4.35e+06 | hu2H11R35R74-PEG4-NHAc-DM4 (D/A 5.6) (antibody, V domains shown, DM4 through PEG4-NHAc linker on lysine residues, sites not given; average D/A 5.6 per antibody, Antibody-drug conjugate of hu2H11R35R74; constant regions as for m2) VH: QVQLVQSGAEVVKPGASVKISCKASGYTFTAYYMHWVKQSPVQSLEWIGLVNPYNGFSSYNQKFQGKASLTVDRSSSTAYMELHSLTSEDSAVYYCAREFYGYRYFDVWGQGTAVTVSS VL: not shown
3.76e+09 | 0.266 | 0.9 | 0.00111 | 4.15e+06 | hu2H11R35R74-PEG4-NHAc-DM4 (D/A 8.4) (antibody, V domains shown, DM4 through PEG4-NHAc linker on lysine residues, sites not given; average D/A 8.4 per antibody, Antibody-drug conjugate of hu2H11R35R74; constant regions as for m2) VH: QVQLVQSGAEVVKPGASVKISCKASGYTFTAYYMHWVKQSPVQSLEWIGLVNPYNGFSSYNQKFQGKASLTVDRSSSTAYMELHSLTSEDSAVYYCAREFYGYRYFDVWGQGTAVTVSS VL: not shown
2.38e+09 | 0.421 | 1.4 | 0.00129 | 3.08e+06 | hu2H11R35R74-PEG4-NHAc-DM4 (D/A 9.3) (antibody, V domains shown, DM4 through PEG4-NHAc linker on lysine residues, sites not given; average D/A 9.3 per antibody, Antibody-drug conjugate of hu2H11R35R74; constant regions as for m2) VH: QVQLVQSGAEVVKPGASVKISCKASGYTFTAYYMHWVKQSPVQSLEWIGLVNPYNGFSSYNQKFQGKASLTVDRSSSTAYMELHSLTSEDSAVYYCAREFYGYRYFDVWGQGTAVTVSS VL: not shown
3.39e+09 | 0.298 | 1 | 0.0011 | 3.71e+06 | hu2H11 (antibody, V domains shown, Humanized IgG made in CHO cells; also called hu53.2H11; humanized 53.2H11) VH: QVQLVQSGAEVVKPGASVKISCKASGYTFTAYYMHWVKQSPVQSLEWIGLVNPYNGFSSYNQKFQGKASLTVDKSSSTAYMELHSLTSEDSAVYYCAREFYGYRYFDVWGQGTAVTVSS VL: not shown
6.16e+08 | 1.62 | 5.4 | 0.00242 | 1.49e+06 | hu2H11-PEG4-NHAc-DM4 (D/A 7.5) (antibody, V domains shown, DM4 through PEG4-NHAc linker on surface lysine residues, sites not given; average D/A 7.5 per antibody, Antibody-drug conjugate of hu2H11; also called conjugated hu2H11) VH: QVQLVQSGAEVVKPGASVKISCKASGYTFTAYYMHWVKQSPVQSLEWIGLVNPYNGFSSYNQKFQGKASLTVDKSSSTAYMELHSLTSEDSAVYYCAREFYGYRYFDVWGQGTAVTVSS VL: not shown

Target: T1, EphA2 receptor on tumor cells
Assay: cell-based or functional assay
Remark: another data set of the same source

Binder | IC50 (M), cytotoxic activity on Lovo cells (WST8, 5 days) [M]
hu2H11-PEG4-Mal-DM4 (DAR 6.99) (antibody, V domains shown, DM4 through PEG4-Mal linker on lysine residues, sites not given; average DAR 6.99) VH: QVQLVQSGAEVVKPGASVKISCKASGYTFTAYYMHWVKQSPVQSLEWIGLVNPYNGFSSYNQKFQGKASLTVDKSSSTAYMELHSLTSEDSAVYYCAREFYGYRYFDVWGQGTAVTVSS VL: not shown | 1.22e-10
hu2H11R35R74-PEG4-Mal-DM4 (DAR 6.70) (antibody, V domains shown, DM4 through PEG4-Mal linker on lysine residues, sites not given; average DAR 6.70) VH: QVQLVQSGAEVVKPGASVKISCKASGYTFTAYYMHWVKQSPVQSLEWIGLVNPYNGFSSYNQKFQGKASLTVDRSSSTAYMELHSLTSEDSAVYYCAREFYGYRYFDVWGQGTAVTVSS VL: not shown | 7.96e-11
hu2H11R35R74-PEG4-Mal-DM4 (DAR 7.00) (antibody, V domains shown, DM4 through PEG4-Mal linker on lysine residues, sites not given; average DAR 7.00) VH: QVQLVQSGAEVVKPGASVKISCKASGYTFTAYYMHWVKQSPVQSLEWIGLVNPYNGFSSYNQKFQGKASLTVDRSSSTAYMELHSLTSEDSAVYYCAREFYGYRYFDVWGQGTAVTVSS VL: not shown | 1.16e-11

Target: T1, EphA2 receptor on tumor cells
Assay: cell-based or functional assay
Remark: another data set of the same source

IC50 (pM), + naked hu2H11R35R74 (1 uM), MDA MB231 cells [pM] | IC50 (pM), ADC alone, MDA MB231 cells, 14C thymidine uptake [pM] | ratio of IC50s (+ naked hu2H11R35R74 / ADC alone) | Binder
36400 | 217 | 168 | hu2H11-R35R74-PEG4-AcNMe-DM4 (DAR 5.4) (antibody, V domains shown, DM4 through PEG4-AcNMe linker on lysine residues, sites not given; average DAR 5.4) VH: QVQLVQSGAEVVKPGASVKISCKASGYTFTAYYMHWVKQSPVQSLEWIGLVNPYNGFSSYNQKFQGKASLTVDRSSSTAYMELHSLTSEDSAVYYCAREFYGYRYFDVWGQGTAVTVSS VL: not shown
19500 | 185 | 105 | hu2H11-R35R74-Acetyl-DM4 (DAR 6.5) (antibody, V domains shown, DM4 through Acetyl linker, sites not given; average DAR 6.5) VH: QVQLVQSGAEVVKPGASVKISCKASGYTFTAYYMHWVKQSPVQSLEWIGLVNPYNGFSSYNQKFQGKASLTVDRSSSTAYMELHSLTSEDSAVYYCAREFYGYRYFDVWGQGTAVTVSS VL: not shown
7820 | 161 | 49 | hu2H11-R35R74-PEG4-Allyl-DM4 (DAR 5.3) (antibody, V domains shown, DM4 through PEG4-Allyl linker on lysine residues, sites not given; average DAR 5.3) VH: QVQLVQSGAEVVKPGASVKISCKASGYTFTAYYMHWVKQSPVQSLEWIGLVNPYNGFSSYNQKFQGKASLTVDRSSSTAYMELHSLTSEDSAVYYCAREFYGYRYFDVWGQGTAVTVSS VL: not shown
29700 | 147 | 202 | hu2H11-R35R74-PEG4-AcNH-DM4 (DAR 5.9) (antibody, V domains shown, DM4 through PEG4-AcNH linker on lysine residues, sites not given; average DAR 5.9) VH: QVQLVQSGAEVVKPGASVKISCKASGYTFTAYYMHWVKQSPVQSLEWIGLVNPYNGFSSYNQKFQGKASLTVDRSSSTAYMELHSLTSEDSAVYYCAREFYGYRYFDVWGQGTAVTVSS VL: not shown
25000 | 400 | 62 | hu2H11-R35R74-PEG8-AcNH-DM4 (DAR 4.9) (antibody, V domains shown, DM4 through PEG8-AcNH linker on lysine residues, sites not given; average DAR 4.9) VH: QVQLVQSGAEVVKPGASVKISCKASGYTFTAYYMHWVKQSPVQSLEWIGLVNPYNGFSSYNQKFQGKASLTVDRSSSTAYMELHSLTSEDSAVYYCAREFYGYRYFDVWGQGTAVTVSS VL: not shown

— US20120201828A1 (Sanofi, published 2012)
